IntAct's records for PubMed 10026153

B1: Tyrosine-protein kinase CSK (Homo sapiens), P41240 (parent)
chain: MSAIQAAWPSGTECIAKYNFHGTAEQDLPFCKGDVLTIVAVTKDPNWYKAKNKVGREGIIPANYVQKREGVKAGTKLSLMPWFHGKITREQAERLLYPPETGLFLVRESTNYPGDYTLCVSCDGKVEHYRIMYHASKLSIDEEVYFENLMQLVEHYTSDADGLCTRLIKPKVMEGTVAAQDEFYRSGWALNMKELKLLQTIGKGEFGDVMLGDYRGNKVAVKCIKNDATAQAFLAEASVMTQLRHSNLVQLLGVIVEEKGGLYIVTEYMAKGSLVDYLRSRGRSVLGGDCLLKFSLDVCEAMEYLEGNNFVHRDLAARNVLVSEDNVAKVSDFGLTKEASSTQDTGKLPVKWTAPEALREKKFSTKSDVWSFGILLWEIYSFGRVPYPRIPLKDVVPRVEKGYKMDAPDGCPPAVYEVMKNCWHLDAAMRPSFLQLREQLEHIKTHELHL

Variants of: B1
Conditions: with igf1r_human IGF1R

Variant | effect of a mutation on the interaction
S109C | disrupting interaction strength
